Experimental data published in article PMC11132685.

Biological target: tetrabrachion-stabilised recombinant N2 NA (NACHO) of A/MORAMANGA/1907/2017 (not stated | influenza A virus (H3N2) A/MORAMANGA/1907/2017)
Assay: SEC-MALS; purified NACHOs; oligomeric state; conditions not given

“tetrabrachion-stabilised recombinant N2 NA (NACHO) of A/MORAMANGA/1907/2017 (enzyme)” gave a stoichiometry N of 4.
